This is an account of results in article PMC6650354.

Like-named read-outs stand apart in the source and are kept apart here.

For experiment [1], the target named is AL-09 H87Y restorative mutant light chain variable domain protein (human) (UniProt P01594). Kind of experiment: HPLC sedimentation assay.
For experiment [2] the target is unchanged. The experiment can be described thus: HPLC sedimentation assay. This is another data set of the same source.
Experiment [3] deals with AL-12 R65S restorative mutant light chain variable domain protein (human) (UniProt P01594). The experiment can be described thus: HPLC sedimentation assay.
Experiment [4] deals with immunoglobulin light chain κI O18/O8 variable domain (Homo sapiens) (UniProt P01594). To be noted: cited from earlier work.
In experiment [5] the target is κI O18/O8 germline (control) light chain variable domain protein (human) (UniProt P01594). The experiment can be described thus: HPLC sedimentation assay.
For experiment [6] the target is unchanged. Kind of experiment: HPLC sedimentation assay. The source holds these as a separate data set.

“AL-09 H87Y restorative mutant light chain variable domain protein (from UniProt P01594 23-117) (domain or fragment)”: the critical concentration (Cr) of fibril growth in experiment [1] was 2.4 µM; in experiment [2] it was 2.8 µM.

Consider “AL-12 R65S restorative mutant light chain variable domain protein (from UniProt P01594 23-111) (domain or fragment)”, for which the critical concentration (Cr) of fibril growth in experiment [3] came out at 3.4 µM.

As to “immunoglobulin light chain κI O18/O8 variable domain (from UniProt P01594)”, the Kd in experiment [4] is 217 µM.

As to “κI O18/O8 germline (control) light chain variable domain protein (from UniProt P01594 23-117) (domain or fragment)”, the results for the critical concentration (Cr) of fibril growth in experiment [5] and in experiment [6] were 1.2 µM and 3.2 µM, respectively.

As usually defined, the Kd is the free concentration of one partner at which half of the binding sites on the other are occupied at equilibrium, for simple one-to-one binding.
